# Molecular target: recombinant transferrin receptor ectodomain (UniProt Q62351)
# Test: competition: 8D3 pre-incubated with 2 µM soluble rTfR ectodomain, then binding to live bEnd.3 cells at 4° C., IRDye detection
# recombinant transferrin receptor ectodomain, sequence (Q62351 89-763 limits assumed): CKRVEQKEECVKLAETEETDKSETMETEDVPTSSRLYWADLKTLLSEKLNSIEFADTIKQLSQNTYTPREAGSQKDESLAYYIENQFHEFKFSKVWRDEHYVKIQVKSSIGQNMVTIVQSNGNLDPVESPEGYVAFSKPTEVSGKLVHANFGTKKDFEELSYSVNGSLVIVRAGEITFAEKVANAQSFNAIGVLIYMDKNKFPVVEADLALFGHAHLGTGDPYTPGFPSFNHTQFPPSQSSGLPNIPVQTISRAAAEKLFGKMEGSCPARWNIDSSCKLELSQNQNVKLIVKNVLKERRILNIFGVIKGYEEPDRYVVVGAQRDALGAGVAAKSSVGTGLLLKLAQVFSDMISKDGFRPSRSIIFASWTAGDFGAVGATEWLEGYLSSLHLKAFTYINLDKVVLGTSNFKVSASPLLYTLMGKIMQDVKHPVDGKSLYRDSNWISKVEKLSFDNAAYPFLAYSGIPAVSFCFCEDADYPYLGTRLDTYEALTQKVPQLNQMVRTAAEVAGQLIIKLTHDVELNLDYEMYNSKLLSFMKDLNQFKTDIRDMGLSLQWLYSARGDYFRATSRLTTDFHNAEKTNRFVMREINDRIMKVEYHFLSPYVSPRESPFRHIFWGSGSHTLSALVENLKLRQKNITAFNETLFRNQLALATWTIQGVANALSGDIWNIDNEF
binder,measurement,value
"anti-transferrin receptor antibody (8D3) (antibody, from another filing, V domains shown) VH: EVQLVESGGGLVQPGNSLTLSCVASGFTFSNYGMHWIRQAPKKGLEWIAMIYYDSSKMNYADTVKGRFTISRDNSKNTLYLEMNSLRSEDTAMYYCAVPTSHYVVDVWGQGVSVTVSS VL: DIQMTQSPASLSASLEEIVTITCQASQDIGNWLAWYQQKPGKSPQLLIYGATSLADGVPSRFSGSRSGTQFSLKISRVQVEDIGIYYCLQAYNTPWTFGGGTKLELK","MBEC binding signal with rTfR competition, percent of the non-competition signal",20%
